These results are taken from the DeepSol protein solubility set.

This series can be described thus: soluble on expression in E. coli; label from the status in PepcDB or PDB records.
Consider “IGNTLHNYSVLADSKSVLLGVMSKNIQVGSFAYRYLCRTSSRMNLNHLQTVDGPIGRCYTLISQDGERTFAINEGHMNQLLPESIPEEVFEKASALVVSSYLMRGKEEDPMPKAVQRAIDFAKKHDVPVVLTLGTKYVIEGNAEWWQEYIRENVSVVAMNEEEGAALTGEHDPLAAADKALEWVDLVLCTAGPNGLYMAGYTDEKVKRETTHDILESSIEEFNKFEFSRAMRKEDCVNPMKVYSHIGPYLGGPLEIKNTNGAGDAALSALLHDMAANSFHQKEVPTSEKHEVRCLTYSSLSQICKYANRVSYEVLTQHSPRLSRALPEREDSLEETYWDR”, for which the “soluble on expression in E. coli” value is recorded as “not soluble”.

For “MKVFNRPILFDIVSRGSPDGLEGLLSFLLTHKKRLTDEEFREPSTGKTCLPKALLNLSAGRNDTIPILLDIAEKTGNMREFINSPFRDVYYRGQTALHIAIERRCKHYVELLVEKGADVHAQARGRFFQPKDEGGYFYFGELPLSLAACTNQPHIVHYLTENGHKQADLRRQDSRGNTVLHALVAIADNTRENTKFVTKMYDLLLIKCAKLFPDTNLEALLNNDGLSPLMMAAKTGKIGIFQHIIRREIADAAAHHHHHH”, the “soluble on expression in E. coli” value is reported as “soluble”.

“MQYINIANRGVKSLSPYQAGKPIEELERELGISNIVKLASNENPFGFPESAKKAIFEQLDKLTRYPDANGFELKQTIAKKFGVQPNQITLGNGSNDLLELFAHTFATEGDEIMYSQYAFIVYPLVTKAINAIVKEIPAKNWGHDLQGFLTALSDKTKLIYIANPNNPTGNFLTSQEIEDFLAEVPENVIVVLDEAYTEFTRSEERVDSFSLLKKYSNLIISRSLSKAYGLAGLRIGYAVSNPEIADLLNRVRQPFNCNSLALTAAVAVMNDDKFVEKVAENNRIEMRRYEDFCQKNQLDYIPSKGNFITIDFKQPAAPIYDALLREGVIVRPIAGYGMPNHLRISIGLPEENDKFFTALSKVLKFA”: the “soluble on expression in E. coli” value is “not soluble”.

Turning to “MGSDKIHHHHHHMQDLLRWKNSKHRKPLILKGVRQVGKTWLLKEFARRYYNNLAYFNFDEHPEYKQFFENTKDVERILQNLMMASGQIINPKEPGTTLIVFDEIQECPNALNTLKYFCENTPHYHVACAGSLLGIALSKPASFPVGKVDFLEIGPMTFTEFLLANGDGNFVSYLDNLDRIEPIPDAFFNPLYEKLKMYFVTGGMPESVRSWTEERDVELVQQVLANILGAYERDFAKHPDPKDFPKISLIWKSLPSQLARENKKFIYKVVKEGARAREYEEALQWLCDASLAYKIYRSSAPGLPISAYDDLAAFKLYLVDVGLLRRLSLLAPSAFGEGNRLFVEFKGALSENYVLQALRNQLEAMPRYWTMDNPRHEVDFLIQRENEIIPVEVKSETNVESRSLKKFKEKYGDKVKLRVRFSLNNLRLDGDLLNIPLFITDYADKLIGMALTDQPKE”, the “soluble on expression in E. coli” value is given as “not soluble”.

For “MSKRVRSSLILPAVCGLGLAAVLLSSCSSKAPQQPARQAGISGPGDYSRPHRDGAPWWDVDVSRIPDAVPMPHNGSVKANPYTVLGKTYYPMNDARAYRMVGTASWYGTKFHGQATANGETYDLYGMTAAHKTLPLPSYVRVTNLDNGKSVIVRVNDRGPFYSDRVIDLSFAAAKKLGYAETGTARVKVEGIDPVQWWAQRGRPAPMVLAQPKQAVAQAAPAAAQTQAVAMAQPIETYTPPPAQHAAAVLPVQIDSKKNASLPADGLYLQVGAFANPDAAELLKAKLSGVTAAPVFISSVVRNQQILHRVRLGPIGSADEVSRTQDSIRVANLGQPTLVRPD”, the “soluble on expression in E. coli” value is listed as “not soluble”.

As to “MGHHHHHHSHMAAAFRKAAKSRQREHRERSQPGFRKHLGLLEKKKDYKLRADDYRKKQEYLKALRKKALEKNPDEFYYKMTRVKLQDGVHIIKETKEEVTPEQLKLMRTQDVKYIEMKRVAEAKKIERLKSELHLLDFQGKQQNKHVFFFDTKKEVEQFDVATHLQTAPELVDRVFNRPRIETLQKEKVKGVTNQTGLKRIAKERQKQYNCLTQRIEREKKLFVIAQKIQTRKDLMDKTQKVKVKKETVNSPAIYKFQSRRKR”, the “soluble on expression in E. coli” value is given as “soluble”.

Turning to “IVGGYTCAANSIPYQVSLNSGSHFCGGSLINSQWVVSAAHCYKSRIQVRLGEHNIDVLEGNEQFINAAKIITHPNFNGNTLDNDIMLIKLSSPATLNSRVATVSLPRSCAAAGTECLISGWGNTKSSGSSYPSLLQCLKAPVLSDSSCKSSYPGQITGNMICVGFLEGGKDSCQGDSGGPVVCNGQLQGIVSWGYGCAQKNKPGVYTKVCNYVNWIQQTIAAN”, the “soluble on expression in E. coli” value is listed as “soluble”.

Regarding “MPMTGRCREPNCHAVVVRPLHYCTKHADKEAAYQASRERWTNRTSNSKRYKDYDRMRSKDPFKAEQHKFYQGKQWRSIREIALRRDNYLCQYCLNHKRVRTGNIGDHIVPYEVEPENRTNLANIAIACSKCHTAKTKWEQLYYGTGMGNKLKNAIPIRNVKDLPDFQKNIRLEHHHHHH”, the “soluble on expression in E. coli” value is on record as “not soluble”.
